Results reported in patent US20180125988A1, “TARGETED XTEN CONJUGATE COMPOSITIONS AND METHODS OF MAKING SAME” (AMUNIX OPERATING INC., priority 2014, published 2018).

Biological target: HER2 (ErbB2, HER2/neu receptor) on HER2 expressing tumor cell lines (human (human tumor cell lines)) (UniProt P04626)
Experiment: cell-based or functional assay

B1: XTEN432-3xMMAE (protein)
chain: SAGSPTAEAAGCGTAEAAGTSESATPESGPGSEPATSGSETPGTSESATPESGPGTSTEPSEGSAPGTSESATPESGPGSPAGSPTSTEEGSPAGSPTSTEEGSPAGSPTSTEEGTSESATPESGPGTSTEPSEGSAPGTSESATPESGPGSEPATSGSETPGTSESATPESGPGSEPATSGSETPGTSESATPESGPGTSTEPSEGSAPTAEAAGCGTAEAAGSPAGSPTSTEEGTSESATPESGPGSEPATSGSETPGTSESATPESGPGSPAGSPTSTEEGSPAGSPTSTEEGTSTEPSEGSAPGTSESATPESGPGTSESATPESGPGTSESATPESGPGSEPATSGSETPGSEPATSGSETPGSPAGSPTSTEEGTSTEPSEGSAPGTSTEPSEGSAPGSEPATSGSETPTAEAAGCGTAEAASASR
Question: For B1, which IC50, CellTiter-Glo cytotoxicity, BT474 cells is on record?
Answer: Its IC50, CellTiter-Glo cytotoxicity, BT474 cells is over 0.3 µM.

Question: What about the IC50, CellTiter-Glo cytotoxicity, HCC1954 cells of the same binder?
Answer: The IC50, CellTiter-Glo cytotoxicity, HCC1954 cells was over 0.3 µM.

Question: What about the IC50, CellTiter-Glo cytotoxicity, NCI-N87 cells of the same binder?
Answer: The IC50, CellTiter-Glo cytotoxicity, NCI-N87 cells was over 1 µM.

Question: What about the IC50, CellTiter-Glo cytotoxicity, SK-BR-3 cells of the same binder?
Answer: Its IC50, CellTiter-Glo cytotoxicity, SK-BR-3 cells is over 0.3 µM.

Question: And the IC50, CellTiter-Glo cytotoxicity, SK-OV-3 cells?
Answer: Its IC50, CellTiter-Glo cytotoxicity, SK-OV-3 cells is over 0.7 µM.

B2: XTEN432-3xDM1 (protein)
chain: B1 chain
Question: How did the IC50, CellTiter-Glo cytotoxicity, BT474 cells turn out when B2 was run?
Answer: Its IC50, CellTiter-Glo cytotoxicity, BT474 cells is over 1 µM.

Question: What about the IC50, CellTiter-Glo cytotoxicity, HCC1954 cells of the same binder?
Answer: Its IC50, CellTiter-Glo cytotoxicity, HCC1954 cells is over 0.36 µM.

Question: And the IC50, CellTiter-Glo cytotoxicity, NCI-N87 cells?
Answer: The IC50, CellTiter-Glo cytotoxicity, NCI-N87 cells was over 1 µM.

Question: And the IC50, CellTiter-Glo cytotoxicity, SK-BR-3 cells?
Answer: Its IC50, CellTiter-Glo cytotoxicity, SK-BR-3 cells is over 1 µM.

Question: And the IC50, CellTiter-Glo cytotoxicity, SK-OV-3 cells?
Answer: The IC50, CellTiter-Glo cytotoxicity, SK-OV-3 cells was over 0.7 µM.
